From patent US20050118170A1

Tests used:
[1] = target: human collagen type I (human) (UniProt P02452); experiment: adherence of cells to collagen-coated plates, 30 minutes at 37° C.; not inhibited by anti-β1 integrin blocking antibody
[2] = target: DDR1b (discoidin domain receptor 1, isoform b), full-length human, overexpressed in THP-1 cells (human) (UniProt Q08345); experiment: cell-based or functional assay
Sequence of DDR1b (discoidin domain receptor 1, isoform b), full-length human, overexpressed in THP-1 cells (human) (Q08345 19-913, form in doubt): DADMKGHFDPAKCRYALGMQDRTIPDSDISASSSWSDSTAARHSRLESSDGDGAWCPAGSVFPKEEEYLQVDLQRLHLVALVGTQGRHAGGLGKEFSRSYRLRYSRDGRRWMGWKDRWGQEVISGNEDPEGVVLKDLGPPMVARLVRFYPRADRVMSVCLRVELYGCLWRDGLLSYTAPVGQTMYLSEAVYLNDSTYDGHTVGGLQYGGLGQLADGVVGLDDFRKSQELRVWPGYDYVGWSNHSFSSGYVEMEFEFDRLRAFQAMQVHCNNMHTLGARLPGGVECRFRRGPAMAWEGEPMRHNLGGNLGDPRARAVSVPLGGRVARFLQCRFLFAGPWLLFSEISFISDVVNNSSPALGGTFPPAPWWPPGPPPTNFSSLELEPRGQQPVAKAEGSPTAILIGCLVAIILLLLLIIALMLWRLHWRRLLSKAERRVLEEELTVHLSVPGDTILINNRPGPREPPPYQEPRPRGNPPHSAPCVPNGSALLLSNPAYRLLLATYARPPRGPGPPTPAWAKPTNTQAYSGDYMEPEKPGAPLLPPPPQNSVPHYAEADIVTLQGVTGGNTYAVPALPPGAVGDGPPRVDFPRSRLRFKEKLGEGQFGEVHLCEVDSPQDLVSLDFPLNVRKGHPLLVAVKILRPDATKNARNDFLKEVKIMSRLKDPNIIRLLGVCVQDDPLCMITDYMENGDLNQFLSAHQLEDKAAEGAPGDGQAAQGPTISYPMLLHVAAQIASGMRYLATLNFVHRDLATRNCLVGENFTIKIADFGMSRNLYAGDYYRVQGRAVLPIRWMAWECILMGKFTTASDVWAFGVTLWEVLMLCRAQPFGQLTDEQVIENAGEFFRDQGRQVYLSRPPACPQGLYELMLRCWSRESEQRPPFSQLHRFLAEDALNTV

Sequence of human collagen type I (human) (P02452 162-1218 limits assumed, chain 1 of 2): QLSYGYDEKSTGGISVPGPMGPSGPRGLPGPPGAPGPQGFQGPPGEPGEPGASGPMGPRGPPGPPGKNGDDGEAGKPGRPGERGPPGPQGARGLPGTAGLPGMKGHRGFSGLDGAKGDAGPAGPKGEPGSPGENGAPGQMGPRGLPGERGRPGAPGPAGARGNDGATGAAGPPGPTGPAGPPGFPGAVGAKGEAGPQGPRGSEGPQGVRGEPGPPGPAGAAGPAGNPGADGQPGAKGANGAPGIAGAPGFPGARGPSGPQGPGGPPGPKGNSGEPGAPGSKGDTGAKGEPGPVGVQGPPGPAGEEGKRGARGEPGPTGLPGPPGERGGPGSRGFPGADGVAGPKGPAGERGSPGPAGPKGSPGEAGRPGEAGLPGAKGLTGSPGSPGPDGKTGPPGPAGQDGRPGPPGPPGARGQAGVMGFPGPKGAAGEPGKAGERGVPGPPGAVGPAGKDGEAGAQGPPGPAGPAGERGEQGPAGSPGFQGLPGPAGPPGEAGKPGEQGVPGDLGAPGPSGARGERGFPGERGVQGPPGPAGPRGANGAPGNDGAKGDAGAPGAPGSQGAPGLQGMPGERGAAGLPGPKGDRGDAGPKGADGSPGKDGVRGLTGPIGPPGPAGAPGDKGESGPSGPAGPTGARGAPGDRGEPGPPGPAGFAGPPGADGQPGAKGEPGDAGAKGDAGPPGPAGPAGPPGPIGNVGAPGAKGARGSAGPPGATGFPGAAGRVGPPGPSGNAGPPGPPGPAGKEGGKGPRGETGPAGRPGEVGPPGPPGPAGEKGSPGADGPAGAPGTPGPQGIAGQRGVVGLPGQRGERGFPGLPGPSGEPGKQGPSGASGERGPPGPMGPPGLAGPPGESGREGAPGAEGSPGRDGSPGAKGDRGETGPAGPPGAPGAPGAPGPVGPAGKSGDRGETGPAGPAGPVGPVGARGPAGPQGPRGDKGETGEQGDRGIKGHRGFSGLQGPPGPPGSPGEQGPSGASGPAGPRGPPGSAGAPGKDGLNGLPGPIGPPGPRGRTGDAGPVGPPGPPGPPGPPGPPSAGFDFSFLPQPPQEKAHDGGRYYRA
Sequence of human collagen type I (human) (P08123 80-1119 limits assumed, chain 2 of 2, further chain): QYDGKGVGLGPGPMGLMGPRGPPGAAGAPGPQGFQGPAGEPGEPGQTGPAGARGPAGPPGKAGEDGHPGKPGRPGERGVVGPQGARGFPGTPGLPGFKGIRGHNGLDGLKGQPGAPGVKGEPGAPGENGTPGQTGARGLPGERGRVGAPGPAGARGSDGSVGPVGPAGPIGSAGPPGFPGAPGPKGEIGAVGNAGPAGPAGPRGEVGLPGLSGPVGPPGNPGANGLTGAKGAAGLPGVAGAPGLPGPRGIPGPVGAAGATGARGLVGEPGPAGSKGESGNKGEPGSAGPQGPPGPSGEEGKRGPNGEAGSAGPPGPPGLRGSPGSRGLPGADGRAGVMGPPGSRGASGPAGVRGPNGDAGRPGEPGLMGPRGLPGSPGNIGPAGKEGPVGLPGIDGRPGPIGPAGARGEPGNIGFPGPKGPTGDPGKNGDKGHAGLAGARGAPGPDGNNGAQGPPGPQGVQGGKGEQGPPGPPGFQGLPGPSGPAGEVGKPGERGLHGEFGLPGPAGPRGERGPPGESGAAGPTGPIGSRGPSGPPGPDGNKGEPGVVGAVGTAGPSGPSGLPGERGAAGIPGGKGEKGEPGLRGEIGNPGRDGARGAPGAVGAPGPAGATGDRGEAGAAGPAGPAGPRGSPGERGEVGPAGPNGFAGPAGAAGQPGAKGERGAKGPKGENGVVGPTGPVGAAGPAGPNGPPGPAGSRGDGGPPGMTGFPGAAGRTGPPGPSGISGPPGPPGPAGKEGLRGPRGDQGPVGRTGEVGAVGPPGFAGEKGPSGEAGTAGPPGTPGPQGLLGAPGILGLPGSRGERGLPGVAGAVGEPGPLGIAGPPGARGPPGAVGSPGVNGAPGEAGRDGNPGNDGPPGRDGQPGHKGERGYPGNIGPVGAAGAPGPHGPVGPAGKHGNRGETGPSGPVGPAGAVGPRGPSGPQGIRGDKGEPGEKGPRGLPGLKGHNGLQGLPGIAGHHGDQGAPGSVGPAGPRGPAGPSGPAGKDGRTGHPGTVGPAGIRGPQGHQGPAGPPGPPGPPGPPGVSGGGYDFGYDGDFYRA
Sequence of DDR1b (discoidin domain receptor 1, isoform b), full-length human, overexpressed in THP-1 cells (Q08345 19-913): as the sequence (Q08345 19-913, form in doubt) above

Substance: DDR1b (discoidin domain receptor 1, isoform b), full-length human, overexpressed in THP-1 cells (from UniProt Q08345 19-913)
- percent of total cells adherent (% of total cells) [1]: 62

Substance: DDR1a (discoidin domain receptor 1, isoform a), full-length human, overexpressed in THP-1 cells (from UniProt Q08345 19-913)
- percent of total cells adherent (% of total cells) [1]: 62

Substance: bovine collagen type I (from UniProt P02453 162-1217; P02465 80-1117)
- decrease in cell proliferation of PMA-treated THP-1 cells on collagen-coated plates [2]: 50%

Substance: bovine collagen type I (from UniProt P02453 162-1217; P02465 80-1117) (ligand)
- CD11c-positive cells at 24 hours on collagen-coated plates [2]: 53%
- CD14-positive cells at 24 hours on collagen-coated plates [2]: 35%
- CD40-positive cells at 24 hours on collagen-coated plates [2]: 19%
- HLA-DR-positive cells, 12 hours on collagen-coated plates [2]: 10%
- HLA-DR-positive cells, 24 hour incubation on collagen-coated plates [2]: 25%
- HLA-DR-positive cells, 48 hour incubation on collagen-coated plates [2]: 70%
- MCP-1 release into culture supernatant (ELISA) [2]: 7 fold
